Experimental data as given in US20210403538A1.

Key:
[1] = target: SUDV GP [change] (Sudan ebolavirus) (UniProt Q7T9D9)
[2] = target: MARV GP [change] (Lake Victoria marburgvirus) (UniProt Q1PD50)
[3] = target: BDBV GP [change] (Bundibugyo ebolavirus (BDBV), strain 200706291 Uganda); assay: ELISA, coated recombinant GP ΔTM
[4] = target: EBOV GP [change] (Zaire ebolavirus (EBOV), strain Makona); assay: ELISA, coated recombinant GP ΔTM

| Binder | EC50 [1] [µg/mL] | EC50 [2] [µg/mL] | EC50 [3] [µg/mL] | EC50 [4] [µg/mL] |
| --- | --- | --- | --- | --- |
| EBOV-510 (antibody, V domains shown) VH: QVQLQESGPGLVKPSQTLSLTCTVSGGSITSGDYYLTWVRQPPGKGLEWIGHIYYSGSTSYNPSLKSRLLMSVDTSKNQFSLRLSSVTAADTAVYYCARESDGDPSRLYFYFAMDVWGQGTLVTVSS VL: QSALTQPASVSGSPGQSITISCTGTSSDVGGSYFVSWYQHHPGKAPKLMISEVSNRPSGVSNRFSGSKSGNTASLTISGLRTEDEADYYCSSYTSNTTLVFGGETKVTVL | 3.09 | > 10 | 0.261 | 0.143 |
| EBOV-517 (antibody, V domains shown) VH: EVQLVESGGGLVQPGGSLRLSCGASGFTFNKYWMTWVRQAPGKGLEWVANINQDGSEKYFAESVKGRFTVSRDNAKNSLYLQMNSLRAEDTAVYYCARGASIEVEILYYYHMDVWGKGTLVTVSS VL: EIVMTQSPATLSVSPGERATLSCRASQSITTHLAWYQQKPGQAPRLLIYDTSTRATGIPARFSGSGSGTEFTLTISNMQSEDFAVYYCQQYHTWPPLTFGGGTKVEIK | 1.69 | > 10 | 0.865 | 0.042 |
| EBOV-514 (antibody, V domains shown) VH: QVQLQESGPGLVKPSQTLSLTCTVSGASITGGDDFWSWIRQPPGKGLEWIGFIHHSGNAYYRSSLKSRVHFSVDTSKDQFSLTLTSVTAADTAVYYCARDKAQAYGLLYHYHTDVWGKGTLVTVSS VL: EIVMTQSPATLSVSPGERATLSCRASQSVSSNLAWYQQKPGLAPRLLIYGAFTRATDIPDRFSGSGSGTEFTLTISSLQSEDFAIYYCQYYNDWPPGYTFGQGTKLEIK | 0.015 | > 10 | 0.01 | 0.007 |
| EBOV-518 (antibody, V domains shown) VH: QVTLKESGPTLVKPTQTLTLTCTFSGFSMNSSGMSVTWIRQPPGKALECLALIYWDDDKWYGPSLETRVTITKDASKNQVVLTMTNMDPVDTATYYCAHSGGLVAGAFDYWGQGTLVTVSS VL: EIVMTQSPDSLTVSLGERATINCRSSQSVLYRVNSKNYLAWYQQKAGQTPKLIINWASTRESGVPDRFSGSGSGTDFTLTISSLQAEDVAVYYCQQYYNSPRTFGQGTKVEIK | 0.352 | 0.78 | 2.63 | 0.283 |
| EBOV-511 (antibody, V domains shown) VH: QLQLQESGPGLVKPSETLSLSCTVSGDSISANNYFWGWIRQPPGKELEWIGSIHNSGSTYYNPSLKSRVTTSVDTSRTQFSLKLHSVTAADAAIYYCARHLAPISGVIFIPSFFDSWGQGTLVTVSS VL: EIVMTQSPATLSVSPGERATLSCRASQSVSSNLAWYQQRPGQAPRLLIFDASTRATGVPARFSGSGSGTEFTLTISSLQSEDFALYYCQQYNDWPPRLTFGGGTKVEIK | 0.387 | > 10 | 0.289 | 0.094 |
| EBOV-508 (antibody, V domains shown) VH: QVQLVQSGAEVKKPGASVKVSCKASGYTFINYYMHWVRQAPGQGLEWMGTINPSTGRPNYAQKFQGRVTLTRDTSTTTVDMELSSLTSEDTAVYYCVSFQFYFDYWGQGTLVTVSS VL: DIQMTQSPSAMSPSVGDRVTITCRASQGINNYLAWFQQKPGKVPKRLIYAASNLQSGVPSRFSGSGSGTEFTLTISSLQPEDFATYYCLQHNSYPWTFGQGTKVEIN | 0.003 | > 10 | 0.005 | 0.002 |
| EBOV-434 (antibody, V domains shown) VH: QVQLVQSGAEVKKPGASVKVSCKASGYTFTGYYMFWVRQAPGQGLEWMGWINPNSGGTNYTQKFQGRVTMTRDTSISTAYMELSRLKSDDTAVYYCARDSGELLFVGSDVWGQGTLVTVSS VL: DIQMTQSPSSVSASVGDRVTITCRASLDISYWLAWYQQKPGKAPKLLIYAASNLQSGVPSRFSGSGSGTDFTLTISSLQPEDFATYYCQQANSFPQTFGQGTRLELK | 1.11 | > 10 | 0.415 | 0.304 |
| EBOV-446 (antibody, V domains shown) VH: QVQLVQSGAEVKKPGASVKVSCKASGYTFTDYYIYWVRQAPGQGLEWMGWLNPNSGGTDYAQKFQGRVTMTRDTSIRTAYMDLSRLRSDDTAVYYCARGRRHGAYVDWGQGTLVTVSS VL: DIQLTQSPSFLSASVGDRVTITCRASQGISTYLAWYQQKPGKAPNLLIYDTSTLQSGVPSRFSGSASGTEFTLTISSLQPEDFATYYCQQLNFYLGGLTFGQGTRLEIK | 0.722 | > 10 | 0.002 | 0.009 |
| EBOV-442 (antibody, V domains shown) VH: EVQLVESGGGLVKPGGSLRLSCTGSGGTGFTFKYAGMSWVRQAPGKGPEWIGRIKSRIDGGTTDYAAPVKDRFIVSRDDSRNTLYLQMNSLKTEDTAVYYCATGSGKGPSASFGESYYYYDFINVWGKGTTVTVSS VL: ESVLTQSPGTLSLSPGERATLSCRASQSISRKYLAWYQQKPGQAPRLLIYGSSSRATGIPDRFSGSGSGTDFTLTISRLEPEDFAVYYCHQYESSPWTFGQGTKVEIK | 0.006 | > 10 | 0.003 | 0.001 |
| EBOV-507 (antibody, V domains shown) VH: QVQLVQSGAEVKKPGASVKVSCKASGYTFNNYLINWVRQAPGQGLEWMGWINPHSGGTEYAQQFQGRLTVTRDTSIRTAYMELRGLTFDDSAMYYCWIWFRSETFDFWGQGTLVTVSS VL: DIQMTQSPSAMSASVGDRVTITCRASQDISNYLAWFQQKPGQGPKRLIFEASILHSGVPSRFSGSGSGTEFTLTISSLQPEDFATYYCLQHNTYLTFGQGTKVEIK | 0.002 | > 10 | 0.004 | 0.001 |
| EBOV-451 (antibody, V domains shown) VH: EVQLVESGGSVVRPGGSLRLSCAASGFKFDEYGMSWVRQAPGKGLEWVSGITWNGGVRTYADSVKGRFTISRDNAKNSVYLQMKSLRGEDTALYYCVSWGERYDAYFDYWGQGTLVTVSS VL: EIVLTQSPGSLSLSPGERATLSCRASQSVNSRYFAWYQQRPGQAPRLLIYATSTRATGIPDRFSGSGSGTDFTLTISRLEPEDFAVYSCQQYGSSPYTFGQGTKLEIK | 0.003 | > 10 | 0.007 | 0.001 |
| EBOV-520 (antibody, V domains shown) VH: QVQLQESGPGLGKPSETLSLSCTVSGASIRGYFWNWIRQPPGKGLEWIGYIHSTGSTNYNPSLKSRVTISVDTSKNQVSLNVNSVTAADTAVYFCARGAWNVATVYYYYGMDVWGQGTLVTVSS VL: EIVLTQSPGTLSLSPGERATLSCRASQSVSSSYFAWYQQKPGQAPRLLISGTSTRAPGIPDRFSGSGSGTDFTLTISRLEPEDFAVYFCQQYGNSLYTFGQGTKLEIK | 0.136 | > 10 | 0.072 | 0.012 |
| EBOV-524 (antibody, V domains shown) VH: QVQLVESGGGVVQPGGSLRLSCAASGFKFSTYGMNWVRQVPGQGLEWVSFVRHDGSNKYYSDSVKGRFTIFRDNSNNKLYLQMNNLRAEDTAVYYCAKDVLDCSRADCFIYYYYMDVWGKGTLVTVSS VL: DIQMTQSPSSVSASPGDRVTITCRASQTISGWLAWYQQKPGKAPKLLIYDVSTLQSGVPSRFSGGGSGTEFTFTISSLQPEDYATYFCQQGNRIPLSFGGGTRVEIK | 0.701 | > 10 | 0.146 | 0.123 |
